“And” between values parts separate entries of the source, which are not always exact repeats. Identical values can stand only once.
Assays:
[1] = target: His6-NT*-thrombin cleavage site-Bri2 BRICHOS fusion protein (human) (UniProt Q9Y287); experiment: SEC; Ni-NTA-purified NT*-Bri2 BRICHOS fusion protein resolved on Superdex columns (Supplementary Fig. 1)
[2] = target: human Bri2 BRICHOS (residues 113–231) tagged C-terminally with AU1, secreted from HEK293 cells (human) (UniProt Q9Y287); experiment: Western blot after non-reducing SDS-PAGE; lysates of HEK293 cells transfected with Bri2 BRICHOS-AU1, anti-AU1 blot (Supplementary Fig. 9a)
[3] = target: human Bri2 BRICHOS (residues 113–231) tagged C-terminally with AU1, secreted from HEK293 cells (human) (UniProt Q9Y287); experiment: immunoprecipitation and Western blot after non-reducing SDS-PAGE; culture medium of HEK293 cells transfected with Bri2 BRICHOS; reducing against non-reducing conditions
[4] = target: recombinant human Bri2 BRICHOS domain (residues 113–231 of full-length human Bri2) (human) (UniProt Q9Y287); experiment: SEC; rh Bri2 BRICHOS cleaved from isolated fusion-protein dimers; Superdex 200 PG
[5] = target: recombinant human Bri2 BRICHOS domain (residues 113–231 of full-length human Bri2) (human) (UniProt Q9Y287); experiment: SEC; rh Bri2 BRICHOS cleaved from isolated fusion-protein monomers; Superdex 200 PG
[6] = target: recombinant human Bri2 BRICHOS domain (residues 113–231 of full-length human Bri2) (human) (UniProt Q9Y287); experiment: SDS-PAGE under non-reducing and reducing conditions; monomeric rh Bri2 BRICHOS (26.8 µM) incubated at 37 °C overnight in 20 mM phosphate pH 8.0, 0.2 mM EDTA, 0.02% NaN3
[7] = target: recombinant human Bri2 BRICHOS domain (residues 113–231 of full-length human Bri2) (human) (UniProt Q9Y287); experiment: Western blot after non-reducing SDS-PAGE; rh Bri2 BRICHOS monomer (5 µM) incubated at 37 °C in 80% (v/v) mouse serum, samples at different time points, goat anti-Bri2 BRICHOS blot
[8] = target: recombinant human Bri2 BRICHOS domain (residues 113–231 of full-length human Bri2) (human) (UniProt Q9Y287); experiment: negative-stain TEM single-particle 3D reconstruction; oligomers isolated on Superose 6 GL in 20 mM ammonium acetate pH 8.0, 2% uranyl acetate stain, D2 symmetry applied; number of subunits from the volume of the map against that of a monomer model

Question: Which stoichiometry N [1] does the source give for “His6-NT*-thrombin cleavage site-Bri2 BRICHOS fusion protein (from UniProt Q9Y287 113-231) (domain or fragment)” here?
Answer: 2

Question: Which results are given for “human Bri2 BRICHOS (residues 113–231) tagged C-terminally with AU1, secreted from HEK293 cells (from UniProt Q9Y287 113-231) (domain or fragment)”?
Answer: stoichiometry N [2]: 2 and 4; stoichiometry N [3]: 2 and 4

Question: Which results are given for “recombinant human Bri2 BRICHOS domain (residues 113–231 of full-length human Bri2) (from UniProt Q9Y287 113-231) (domain or fragment)”?
Answer: stoichiometry N [4]: 2 and 4; stoichiometry N [5]: 2; stoichiometry N [6]: 2; stoichiometry N [7]: 2 and 4 and 6; stoichiometry N [8]: 24

Reference: paper PMC5727130
